In the experiment the target is Claudin 18 splice variant 2 (CLDN18.2) (human). Kind of experiment: cell-based or functional assay.

Chain of IMAB362 (VH): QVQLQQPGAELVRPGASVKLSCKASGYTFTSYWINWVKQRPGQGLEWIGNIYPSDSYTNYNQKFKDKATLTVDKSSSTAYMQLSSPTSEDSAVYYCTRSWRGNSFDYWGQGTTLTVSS
Chain of IMAB362 (VL): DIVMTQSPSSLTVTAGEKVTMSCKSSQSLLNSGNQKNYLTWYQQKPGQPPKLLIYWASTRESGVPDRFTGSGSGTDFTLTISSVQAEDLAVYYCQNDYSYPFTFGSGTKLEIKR

In turn, IMAB362 (antibody) registered a CDC lysis of CLDN18.2-transfected CHO-K1 cells, 0.5 µg/ml IMAB362 in pooled sera from healthy controls, 80 min of 64.5%; a CDC lysis of CLDN18.2-transfected CHO-K1 cells, 0.5 µg/ml fresh IMAB362 in patient pre-infusion serum (20% v/v), 80 min of 71%; a CDC lysis of CLDN18.2-transfected CHO-K1 cells, 0.5 µg/ml fresh IMAB362 in pre-infusion serum of patient 0204, 80 min of 93.9%; an EC50 of CDC on CLDN18.2 positive CHO-K1 target cells of 0.5 µg/mL. In addition, the EC80-100 of total cytotoxicity (ADCC plus serum components) on NUGC-4 cells, healthy donor PBMCs, E:T 40:1, 25% serum was 200 µg/mL; the maximal specific lysis of NUGC-4 target cells, ADCC with patient PBMCs (E:T 20:1, 24 h), at ~30 µg/ml IMAB362 was 27 to 77%; the specific killing of NUGC-4 cells by IMAB362 present in patient serum 28-32 days after administration (healthy donor PBMCs, E:T 40:1) was greater than 48%.

(Values after patent US20260069687A1.)
